According to patent US20250197488A1 (MABWELL SHANGHAI BIOSCIENCE, published 2025):

Assays:
[1] = target: T1, human IL-11 (AAH12506.1, Pro22-Leu199) (human, UniProt P20809 22-199); assay: BLI (Octet), antibody captured, human IL-11 in solution
T1 construct: The range Pro22-Leu199 counts on AAH12506.1; The Octet runs say only 'human IL-11'; also called hIL-11
T1 chain: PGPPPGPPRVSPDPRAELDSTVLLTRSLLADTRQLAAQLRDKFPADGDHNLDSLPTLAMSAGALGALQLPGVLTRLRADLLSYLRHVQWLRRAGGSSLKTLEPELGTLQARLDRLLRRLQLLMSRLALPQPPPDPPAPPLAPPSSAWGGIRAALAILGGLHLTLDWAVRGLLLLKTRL
Method: The affinity of the murine antibodies purified from the hybridoma supernatants was determined using an Octet QKe System instrument from Fortebio Inc. with an anti-mouse IgG Fc Capture biosensor to capture the Fc fragments of the antibodies, for which an anti-IL-11 antibody named “3C6-mFc” recombinantly expressed was used at the same concentration as a positive control. Specifically, a hybridoma supernatant was diluted with HBS-EP+ buffer (GE), and was allowed to pass through the surface of AMC probes (Cat: 18-5088, PALL), and so the antibody in the hybridoma supernatant was captured on the surface of the probes; then, human IL-11 diluted in the HBS-EP+ buffer (300 nM) was used as a mobile phase to react with the antibody captured on the surface of the probes. Both the binding and the dissociating were conducted for 300 seconds. When the experiment was finished, data from which response values of blank controls had been deducted was fitted using a 1:1 Langmuir binding model by software, and then kinetic constants for antigen-antibody binding were calculated. Binding signals were detected on the Octet QKe System instrument with Hy5C2, Hy8C8, Hy16B5, Hy18A10, and Hy18H10.
The affinity of hz18A10 and hz8C8 was determined according to the method provided in Example 1 using AHC bioprobes for capturing human Fc fragment instead, with other conditions unchanged. A recombinantly expressed anti-IL-11 antibody 3C6-hFc was used at the same concentration as a positive control.
(§1) Then, light and heavy chain expression vectors for preparing mutant antibodies were constructed according to the method for preparing the recombinant antibodies provided in Example 4, using the mutant sequences shown in Table 3 which accordingly were linked with human IgG1 constant regions (SEQ ID NO. 13, and SEQ ID NO.14). Subsequently, the light chain and the heavy chain were reasonably matched and co-transfected into eukaryotic cells for transient expression, and then recombination protein samples of the mutant antibodies were obtained through affinity purification. The samples obtained were tested for affinity on Fortebio Octet, according to the method for measuring affinity provided in Example 1.

[2] = target: T2, IL-11 (Cat. 12225-HNCE, Sino Biological Inc.) (UniProt P20809 22-199, limits assumed); assay: cell-based or functional assay
T2 sequence (looked up): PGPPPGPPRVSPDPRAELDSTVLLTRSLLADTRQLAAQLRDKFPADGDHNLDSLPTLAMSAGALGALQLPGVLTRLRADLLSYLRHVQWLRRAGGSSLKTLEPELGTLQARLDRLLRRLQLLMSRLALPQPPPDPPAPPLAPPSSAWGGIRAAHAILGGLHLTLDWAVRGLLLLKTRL

[3] = target: T2, IL-11 (Cat. 12225-HNCE, Sino Biological …); assay: competition ELISA, IL-11/IL-11Rα/GP130 complex
Method: The activity of the recombinant murine anti-IL-11 antibodies for blocking the formation of IL-11/IL-11Rα/GP130 complex was analyzed via competition ELISA. IL-11Rα-His (NP_004503.1, Met1-Val363, C-terminus-6-His Tag) was firstly added into ELISA plates to be coated overnight. Next day, samples were prepared as follows. […] After co-incubating and washing, an HRP conjugated anti-human Fc secondary antibody was added to develop the color which was then detected.
as §1, with “1. Further, using the protocol provided in Example 3, hz8C8 and its affinity matured mutants were analyzed for their activity for blocking the formation of IL-11/IL-11Rα/GP130 complex.” for “1.”

Binder	Kd [1]	koff [1]	kon [1]	Blocking activity (IC50), STAT3-luc reporter [2]	IC50 [3]
hz8C8-VHm1-m3 + hz8C8-VLm7-m2 (antibody, human IgG1, kappa, V domains shown, human IgG1 constant regions) VH: EVQLVESGGGLVQPGGSLRLSCAASGFTFSSFGMHWVRQAPGKGLEWVAYITPGSNTIYYADTVKGRFTISRDNAKNSLYLQMNSLRAEDTAVYYCAREYSSYDEGFAYWGQGTLVTVSS VL: EIVLTQSPATLSLSPGERATLSCSVSDLIPSQYLHWYQQKPGQAPRLLIYDASNLASGIPARFSGSGSGTDFTLTISSLEPEDFAVYYCQQGVDVPFTFGQGTKLEIKR	< 0.001 nM	< 1e-07 s⁻¹	945000 M⁻¹ s⁻¹	0.009 µg/mL	0.67 µg/mL
hz8C8-VHm1-m11 + hz8C8-VLm7-m2 (antibody, human IgG1, kappa, V domains shown, human IgG1 constant regions) VH: EVQLVESGGGLVQPGGSLRLSCAASGFTFSSFGMHWVRQAPGKGLEWVAYITPGSNTIYYADTVKGRFTISRDNAKNSLYLQMNSLRAEDTAVYYCAREYYSYDEGPAYWGQGTLVTVSS VL: EIVLTQSPATLSLSPGERATLSCSVSDLIPSQYLHWYQQKPGQAPRLLIYDASNLASGIPARFSGSGSGTDFTLTISSLEPEDFAVYYCQQGVDVPFTFGQGTKLEIKR	1.3 nM	0.001 s⁻¹	771000 M⁻¹ s⁻¹	0.01 µg/mL	1.7 µg/mL
hz8C8-VHm1-m4 + hz8C8-VLm7-m2 (antibody, human IgG1, kappa, V domains shown, human IgG1 constant regions) VH: EVQLVESGGGLVQPGGSLRLSCAASGFTFSSFGMHWVRQAPGKGLEWVSYITPGSNTIYYADTVKGRFTISRDNAKNSLYLQMNSLRAEDTAVYYCAREYYSYDEGFAYWGQGTLVTVSS VL: EIVLTQSPATLSLSPGERATLSCSVSDLIPSQYLHWYQQKPGQAPRLLIYDASNLASGIPARFSGSGSGTDFTLTISSLEPEDFAVYYCQQGVDVPFTFGQGTKLEIKR	< 0.001 nM	< 1e-07 s⁻¹	879000 M⁻¹ s⁻¹	0.004 µg/mL	0.79 µg/mL
hz8C8-VHm1-m8 + hz8C8-VLm7-m2 (antibody, human IgG1, kappa, V domains shown, human IgG1 constant regions) VH: EVQLVESGGGLVQPGGSLRLSCAASGFTFSSFGMHWVRQAPGKGLEWIGYITPGSNTIYYADTVKGRFTISRDNAKNSLYLQMNSLRAEDTAVYYCAREYYSYDEGFAYWGQGTLVTVSS VL: EIVLTQSPATLSLSPGERATLSCSVSDLIPSQYLHWYQQKPGQAPRLLIYDASNLASGIPARFSGSGSGTDFTLTISSLEPEDFAVYYCQQGVDVPFTFGQGTKLEIKR	< 0.001 nM	< 1e-07 s⁻¹	847000 M⁻¹ s⁻¹	0.003 µg/mL	0.57 µg/mL
hz8C8-VHm1-m5 + hz8C8-VLm7-m2 (antibody, human IgG1, kappa, V domains shown, human IgG1 constant regions) VH: EVQLVESGGGLVQPGGSLRLSCAASGFTFSSFGMHWVRQAPGKGLEYVAYITPGSNTIYYADTVKGRFTISRDNAKNSLYLQMNSLRAEDTAVYYCAREYYSYDEGFAYWGQGTLVTVSS VL: EIVLTQSPATLSLSPGERATLSCSVSDLIPSQYLHWYQQKPGQAPRLLIYDASNLASGIPARFSGSGSGTDFTLTISSLEPEDFAVYYCQQGVDVPFTFGQGTKLEIKR	0.0594 nM	4.05e-05 s⁻¹	683000 M⁻¹ s⁻¹	0.194 µg/mL	0.52 µg/mL
hz8C8-VHm1-m9 + hz8C8-VLm7-m2 (antibody, human IgG1, kappa, V domains shown, human IgG1 constant regions) VH: EVQLVESGGGLVQPGGSLRLSCAASGFTFSSFGMHWVRQAPGKGLEWMGYITPGSNTIYYADTVKGRFTISRDNAKNSLYLQMNSLRAEDTAVYYCAREYYSYDEGFAYWGQGTLVTVSS VL: EIVLTQSPATLSLSPGERATLSCSVSDLIPSQYLHWYQQKPGQAPRLLIYDASNLASGIPARFSGSGSGTDFTLTISSLEPEDFAVYYCQQGVDVPFTFGQGTKLEIKR	0.0239 nM	2.14e-05 s⁻¹	897000 M⁻¹ s⁻¹	0.002 µg/mL	0.77 µg/mL
hz8C8-VHm1-m7 + hz8C8-VLm7-m2 (antibody, human IgG1, kappa, V domains shown, human IgG1 constant regions) VH: EVQLVESGGGLVQPGGSLRLSCAASGFTFSSFGMHWVRQAPGKGLEWVSVITPGSNTIYYADTVKGRFTISRDNAKNSLYLQMNSLRAEDTAVYYCAREYYSYDEGFAYWGQGTLVTVSS VL: EIVLTQSPATLSLSPGERATLSCSVSDLIPSQYLHWYQQKPGQAPRLLIYDASNLASGIPARFSGSGSGTDFTLTISSLEPEDFAVYYCQQGVDVPFTFGQGTKLEIKR	1.87 nM	0.00111 s⁻¹	595000 M⁻¹ s⁻¹	0.027 µg/mL	2.14 µg/mL
hz8C8-VHm1-m3 + hz8C8-VLm7-m3 (antibody, human IgG1, kappa, V domains shown, human IgG1 constant regions) VH: EVQLVESGGGLVQPGGSLRLSCAASGFTFSSFGMHWVRQAPGKGLEWVAYITPGSNTIYYADTVKGRFTISRDNAKNSLYLQMNSLRAEDTAVYYCAREYSSYDEGFAYWGQGTLVTVSS VL: EIVLTQSPATLSLSPGERATLSCSVSDLIPSQYLHWYQQKPGQAPRLLIYGASNLASGIPARFSGSGSGTDFTLTISSLEPEDFAVYYCQQGVDVPFTFGQGTKLEIKR	< 0.001 nM	< 1e-07 s⁻¹	972000 M⁻¹ s⁻¹	0.022 µg/mL	0.78 µg/mL
hz8C8-VHm1-m10 + hz8C8-VLm7-m2 (antibody, human IgG1, kappa, V domains shown, human IgG1 constant regions) VH: EVQLVESGGGLVQPGGSLRLSCAASGFTFSSFGMHWVRQAPGKGLEWVAYITPGSNTIYYADTVKGRFTISRDNAKNSLYLQMNSLRAEDTAVYYCAREYYSSDEGFAYWGQGTLVTVSS VL: EIVLTQSPATLSLSPGERATLSCSVSDLIPSQYLHWYQQKPGQAPRLLIYDASNLASGIPARFSGSGSGTDFTLTISSLEPEDFAVYYCQQGVDVPFTFGQGTKLEIKR	1.39 nM	0.000305 s⁻¹	219000 M⁻¹ s⁻¹	0.008 µg/mL	1.57 µg/mL
hz8C8-VHm1-m3 + hz8C8-VLm7-m4 (antibody, human IgG1, kappa, V domains shown, human IgG1 constant regions) VH: EVQLVESGGGLVQPGGSLRLSCAASGFTFSSFGMHWVRQAPGKGLEWVAYITPGSNTIYYADTVKGRFTISRDNAKNSLYLQMNSLRAEDTAVYYCAREYSSYDEGFAYWGQGTLVTVSS VL: EIVLTQSPATLSLSPGERATLSCSVSDLIPSQYLHWYQQKPGQAPRLLIYRTSNRASGIPARFSGSGSGTDFTLTISSLEPEDFAVYYCQQGVDVPFTFGQGTKLEIKR	< 0.001 nM	< 1e-07 s⁻¹	901000 M⁻¹ s⁻¹	0.02 µg/mL	0.47 µg/mL
hz8C8-VHm1-m6 + hz8C8-VLm7-m2 (antibody, human IgG1, kappa, V domains shown, human IgG1 constant regions) VH: EVQLVESGGGLVQPGGSLRLSCAASGFTFSSFGMHWVRQAPGKGLEWVAVITPGSNTIYYADTVKGRFTISRDNAKNSLYLQMNSLRAEDTAVYYCAREYYSYDEGFAYWGQGTLVTVSS VL: EIVLTQSPATLSLSPGERATLSCSVSDLIPSQYLHWYQQKPGQAPRLLIYDASNLASGIPARFSGSGSGTDFTLTISSLEPEDFAVYYCQQGVDVPFTFGQGTKLEIKR	2.07 nM	0.00135 s⁻¹	653000 M⁻¹ s⁻¹	0.034 µg/mL	1.71 µg/mL
